The supplement of paper PMC9112550, “Optimization of the antimicrobial peptide Bac7 by deep mutational scanning” (BMC Biology, 2022)

System: Escherichia coli TOP10
Experiment: shrunken log2 fold change of peptide-encoding DNA abundance (4.5 h post-induction vs induction); higher = less antimicrobial activity (less host growth inhibition)
Settings: time post-induction: 4.5 h; library: site-saturation at positions 5, 18, 19, 20
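Also: peptides expressed intracellularly from a pBAD plasmid library in pooled LB shake-flask culture, induced with 0.3% L-arabinose, DNA abundance read by NGS, three biological replicates, DESeq2 with apeglm shrinkage.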

Row | Sequence | shrunken log2 fold change
1 | RRIRIRPPRLPRPRPRPLLGPRP | -0.175
2 | RRIRWRPPRLPRPRPRPFCRPRP | 0.0689
3 | RRIRVRPPRLPRPRPRPRSEPRP | -0.14
4 | RRIRPRPPRLPRPRPRPRTPPRP | 0.536
5 | RRIRPRPPRLPRPRPRPPLGPRP | 0.585
6 | RRIRCRPPRLPRPRPRPCGTPRP | -0.306
7 | RRIRERPPRLPRPRPRPHNLPRP | -0.47
8 | RRIRQRPPRLPRPRPRPTLPPRP | 1.69
9 | RRIRVRPPRLPRPRPRPEQAPRP | 0.358
10 | RRIRHRPPRLPRPRPRPSREPRP | 0.0138
11 | RRIRLRPPRLPRPRPRPANEPRP | 0.0458
12 | RRIRYRPPRLPRPRPRPFFLPRP | -0.763
13 | RRIRPRPPRLPRPRPRPPSVPRP | 0.321
14 | RRIRQRPPRLPRPRPRPRATPRP | 0.138
15 | RRIRFRPPRLPRPRPRPEMMPRP | 0.00382
16 | RRIRERPPRLPRPRPRPCHFPRP | 0.161
17 | RRIRYRPPRLPRPRPRPYWNPRP | -1.63
18 | RRIRIRPPRLPRPRPRPEWAPRP | 0.0716
19 | RRIRARPPRLPRPRPRPACSPRP | 0.591
20 | RRIRVRPPRLPRPRPRPQIRPRP | -0.305
21 | RRIRFRPPRLPRPRPRPNTSPRP | -0.307
22 | RRIRNRPPRLPRPRPRPRYIPRP | -0.455
23 | RRIRERPPRLPRPRPRPMHGPRP | -0.00992

Row | Sequence | shrunken log2 fold change
24 | RRIRCRPPRLPRPRPRPHPQPRP | 0.266
25 | RRIRWRPPRLPRPRPRPAHIPRP | -0.0509
26 | RRIRSRPPRLPRPRPRPYRDPRP | -0.128
27 | RRIRFRPPRLPRPRPRPSSWPRP | -0.105
28 | RRIRQRPPRLPRPRPRPGMMPRP | -0.0714
29 | RRIRGRPPRLPRPRPRPTMWPRP | 0.757
30 | RRIRIRPPRLPRPRPRPRIDPRP | -0.0642
31 | RRIRDRPPRLPRPRPRPMAGPRP | 0.00396
32 | RRIRRRPPRLPRPRPRPCGDPRP | 0.478
33 | RRIRNRPPRLPRPRPRPACGPRP | 0.547
34 | RRIRCRPPRLPRPRPRPTCEPRP | 0.142
35 | RRIRERPPRLPRPRPRPSDIPRP | -0.0101
36 | RRIRLRPPRLPRPRPRPDAEPRP | 0.326
37 | RRIRCRPPRLPRPRPRPYREPRP | -0.09
38 | RRIRIRPPRLPRPRPRPKFYPRP | -0.713
39 | RRIRMRPPRLPRPRPRPEKQPRP | 2.16
40 | RRIRIRPPRLPRPRPRPAWSPRP | -0.191
41 | RRIRWRPPRLPRPRPRPGCRPRP | 0.417
42 | RRIRQRPPRLPRPRPRPQVNPRP | -0.499
43 | RRIRHRPPRLPRPRPRPIPIPRP | -0.115
44 | RRIRTRPPRLPRPRPRPRGYPRP | 0.205
45 | RRIRPRPPRLPRPRPRPNICPRP | -0.799
46 | RRIRHRPPRLPRPRPRPICMPRP | -0.00804

Row | Sequence | shrunken log2 fold change
47 | RRIRNRPPRLPRPRPRPAKVPRP | -0.0027
48 | RRIRLRPPRLPRPRPRPLPKPRP | 0.393
49 | RRIRCRPPRLPRPRPRPETWPRP | 0.203
50 | RRIRRRPPRLPRPRPRPPICPRP | 0.152
51 | RRIRMRPPRLPRPRPRPSFDPRP | 0.485
52 | RRIRRRPPRLPRPRPRPRSTPRP | 0.36
53 | RRIRSRPPRLPRPRPRPYETPRP | -0.181
54 | RRIRMRPPRLPRPRPRPMLYPRP | 0.0885
55 | RRIRCRPPRLPRPRPRPNYIPRP | -0.84
56 | RRIRHRPPRLPRPRPRPMRLPRP | 0.0431
57 | RRIRRRPPRLPRPRPRPLWMPRP | 0.0635
58 | RRIRPRPPRLPRPRPRPAYLPRP | -0.317
59 | RRIRVRPPRLPRPRPRPTEMPRP | -0.0269
60 | RRIRPRPPRLPRPRPRPCMWPRP | 0.0459
61 | RRIRPRPPRLPRPRPRPYSKPRP | -0.868
62 | RRIRRRPPRLPRPRPRPKYDPRP | -0.466
63 | RRIRNRPPRLPRPRPRPMVTPRP | -0.157
64 | RRIRKRPPRLPRPRPRPQHAPRP | 0.232
65 | RRIRERPPRLPRPRPRPLGYPRP | -0.39
66 | RRIRVRPPRLPRPRPRPLIQPRP | -0.351
67 | RRIRWRPPRLPRPRPRPVYQPRP | -0.196
68 | RRIRNRPPRLPRPRPRPFMSPRP | -0.17
69 | RRIRMRPPRLPRPRPRPCSYPRP | -0.0368

Row | Sequence | shrunken log2 fold change
70 | RRIRTRPPRLPRPRPRPDAWPRP | 0.285
71 | RRIRKRPPRLPRPRPRPMCTPRP | -0.0805
72 | RRIRARPPRLPRPRPRPRVTPRP | 0.462
73 | RRIRNRPPRLPRPRPRPKMCPRP | -0.0269
74 | RRIRFRPPRLPRPRPRPPYCPRP | -0.448
75 | RRIRHRPPRLPRPRPRPMYHPRP | -0.287
76 | RRIRGRPPRLPRPRPRPDNNPRP | 0.388
77 | RRIRARPPRLPRPRPRPAEGPRP | 0.818
78 | RRIRKRPPRLPRPRPRPCQCPRP | -0.0903
79 | RRIRVRPPRLPRPRPRPQYWPRP | -0.265
80 | RRIRWRPPRLPRPRPRPCWCPRP | -0.215
81 | RRIRSRPPRLPRPRPRPWCGPRP | 0.0715
82 | RRIRMRPPRLPRPRPRPEKMPRP | 1.68
83 | RRIRLRPPRLPRPRPRPADHPRP | -0.53
84 | RRIRDRPPRLPRPRPRPLMDPRP | 0.172
85 | RRIRERPPRLPRPRPRPENKPRP | -0.697
86 | RRIRIRPPRLPRPRPRPCHCPRP | 0.0274
87 | RRIRLRPPRLPRPRPRPHGFPRP | 0.000509
88 | RRIRWRPPRLPRPRPRPFMNPRP | -0.11
89 | RRIRMRPPRLPRPRPRPRVQPRP | 0.64
90 | RRIRGRPPRLPRPRPRPVPFPRP | 0.289
91 | RRIRYRPPRLPRPRPRPFRIPRP | -0.535
